± gives the uncertainty stated by the source.
Test: amyloid nucleation score (Sup35N fusion, yeast selection) (log enrichment); library NNK3; higher = more nucleation; inactive = no reads after selection
Method in brief: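 Output and input plasmid inserts were sequenced by Illumina after psi-negative yeast carrying Sup35N fused to peptides of 20 random codons had been induced 24 hours with 100 μM copper sulfate and grown 7 days at 30°C on medium lacking adenine and uracil. The nucleation score is the DiMSum log enrichment of output over input reads, centred on the mode score of non-aggregating sequences. Sequences with under 100 input reads were excluded.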

Substance | amyloid nucleation score
VGQTCFTIMMVV | inactive
IFLCLSICMFRPFRMVLS | inactive
SVAKNCWCPKCGMSSTFDSI | inactive
TCRQNFCYCLDVIVQSCLSS | inactive
CLISLDHIFLPSWNTGICIL | inactive
LRWCGSVFLFGGCRGTVVSW | inactive
SGLDMRYHWNFVICQATRSY | inactive
DYEHSGSCKIDFVTL | inactive
AIGMMASRWNLWCITLFLLK | inactive
KPLSRSLRHSLCNRTAMIRF | 0.672 ± 0.32
VKTESEVLLSRMSTYSWENA | 1.23 ± 0.17
LSDMNVNKRMCCMVRDSNMR | inactive
CIIFTRMATTGG | inactive
NLKLAWNRLSRMHWFLMNRS | inactive
DKGFINCVSGSGDHVTCGGS | inactive
KFGEAWIIPRDRVMEVFEW | inactive
CSNVRPLD | inactive
EGYQVFFNDLVLTLVMRVEV | inactive
HKIWVVQQWGRRRQQ | inactive
MDSPTGLALDG | inactive
SKRFAIAEQVCNSF | inactive
EGYRFCCGMLIN | inactive
VSTRGITDMMLGDMAVVNVG | inactive

Substance | amyloid nucleation score
QFFSISIFTWVYLVENVADI | inactive
FIGSGSHEIGGHINGKALSS | 0.644 ± 0.19
WTGLLLCVF | -0.093 ± 0.85
IFVFLHLHLIWFYSSSWLMD | inactive
SKPLYNSWIPMCLLFKVPPF | inactive
SGFILSCMLNPGTFTNDLMG | inactive
GLRGVDWVDREQLPGTVQGH | -0.589 ± 1.9
YVWRDLKAMGFVYAGVCGKA | inactive
SGAEDFQV | inactive
KDVYCRGVGG | inactive
DFLVPIKARNYCLNVGPNTY | inactive
SSCRETTLEFAMGGTTVHLQ | inactive
YSSMYFL | inactive
KDIFYVAGDR | inactive
YRYVNN | inactive
LADLLLCDLRDCRRSAVGRM | inactive
RIVGEYSLKGCEVNVSWVKS | inactive
HSSSVTCI | inactive
ELAFMNYYNNECSRPLLSSP | inactive
DNAVVEEYIIEVAKSFWTDG | inactive
LEITALLTVRMHVDS | inactive
FVSLHTRLGDLHDVVCTLVF | inactive
AYINTRYGFFGNLVDDTKSS | inactive

Substance | amyloid nucleation score
NELGEIAYGCGFRVVCRCMR | inactive
RHRASGLFP | inactive
SIDIVVVWTGAIQDFRVLCL | -0.594 ± 1.1
LHITYGSFCTLVFLIIVRWF | inactive
VGNFTWICKI | 2.48 ± 0.056
EHSNNFTHNYVFWIGIGLAC | inactive
CEIVFQYVFNFFSPTTSVVC | 1.54 ± 0.089
SFSFVVPQARYFPTC | inactive
GSSVELVIQSS | 0.415 ± 0.28
NRWEFVHLLSYWNKSCDLCC | inactive
FRSAYDYNFC | inactive
SRYFYDADYLFGGHSVAGQI | inactive
SRGLFTNGVASFRRVCGLPW | inactive
CSFGRS | inactive
HYRVLPPAVVRRRVMLL | inactive
IASEFVRGKHSHYM | inactive
CNFQYILCRIM | 2.15 ± 0.057
SGWTTQVRNKDGWASQLVSE | inactive
KVCVLVDMHSGHTVHWGLMC | inactive
VSFLFDIW | 2.24 ± 0.06
LSYLC | inactive
LRQGWILVA | inactive
GKDVSVGEVFKPLVSVRRVN | inactive

Substance | amyloid nucleation score
LNNWSKRVFLSPVPVWHSMS | -0.619 ± 1.9
SKALVSLWFLISMMNPYFIR | inactive
NSIIGTVDGKSGSNRVRSP | inactive
LSHPTPQSCRHFVFNLKLSA | inactive
GICHAACCCANVMYCSWHVR | 1 ± 0.16
GSRKYRCVDIISFGEWAVLD | inactive
SSSSIVLDGLTFWLINTVTT | 0.598 ± 0.21
WVHCSPGDRSFTLGTPSFHK | inactive
FLSDSLNARS | inactive
KSSSFSFVASCGHAVILQKK | inactive
TYLCGFHLYCC | inactive
LMLEASCCSHAEFPHGVKMR | inactive
NVLVKYVPAALFRSNSLQET | inactive
IYAVSCVCVGIYGTIRLTSG | 0.017 ± 0.23
NLCSCDNWRRRRCASMWALV | inactive
LNHYECSW | inactive
RLQVRLSLLRWFRNYGLTIA | inactive
KMRRVLLSLSVYMNCKSMVR | inactive
TYCYTVVTASMDAFEG | inactive
MIKPIIHFSGG | inactive
PCRPGRSRVVHS | 0.614 ± 0.27
IVDGWR | inactive
MTFTCFVRFPTVRYNAKGCL | inactive

Substance | amyloid nucleation score
NRFVNLSNRMVYDFRYRMAV | inactive
GEWLCVFFSWPSGSPIVPWE | inactive
VAPGDPNMIGHGLHVFTTTL | -0.498 ± 0.83
RIHSYAYPCQFFRLDYGGGQ | 0.703 ± 0.13
LWGAYLLNCGNMRYCMYISG | 0.803 ± 0.2
SMSNQSSTFDSLLFRQWLVV | inactive
GRHSALRASFGL | inactive
HVCWVWMCEVFKAAIPSVTD | inactive
YGYSVPGKIEFYVGVIGRNP | 1.2 ± 0.085
VDLGRWFSSGFVWLGYKDIF | inactive
SCVVFGSQTLRVVFFDRVSS | 0.184 ± 0.32
SKSHLTIVSSYDHFHYMVRV | inactive
RKQRNWCTTPVVRFRVYGYA | inactive
LVLVSTFMHVGDVCYHMYY | 2.99 ± 0.057
MMDSWYVVVRYLSTLYNCDI | inactive
YGLIRYPLFIFSALVTT | inactive
IPDDDFFLLALSTLN | inactive
IIYVNTSEGVSVFRNWSDDV | inactive
WLTYYIDFRVILSFQSVRDY | inactive
AYADGYNLFWDYK | inactive
GYRSTCVRRFCECRCRDITA | inactive
LGQFDTDTLAHDSMGAGNAV | 1.24 ± 0.16
MVQRSMKARILFCKVNFLCA | 1.16 ± 0.15

Substance | amyloid nucleation score
SVTSHDPMACHLLVCSV | inactive
VNVEFLASVFPWNISKKCEQ | inactive
TSERLMVSQITAHILGFHEI | inactive
QYLWPAKFFQTLYIVGCTTP | inactive
FQNPFTPFGLVVRYVPWLCW | inactive
PDLLTRILERPGVSECFMQW | inactive
TYFDFVLYV | inactive
SNWEFYDRYTYRRLGLEQKV | inactive
KGQDCNVLNSNYESSIVGDL | inactive
SFFDYAHRASSVFLGIFPEP | inactive
ISTARCNLLCRCWLRIYYND | inactive
FTYAC | inactive
GEISWDC | 0.283 ± 0.3
AVYLCI | inactive
FFFKSLEVSVTQR | inactive
KGSSC | inactive
RREYVVGNSFFYNY | 1.19 ± 0.093
VSLKEITKLYRSIWVFLWSS | inactive
GVIIRFWYWQDYAASLEYTC | inactive
GDRVSEVTDCVFQAISIRCA | inactive
CGLQLQCMVEVLVVCPEQLL | 0.737 ± 0.16
TNVAHSKSSHHAYFIDWIGQ | inactive
VNKVDGLETMQYIFTCGSWM | 0.098 ± 0.23

Substance | amyloid nucleation score
MILNWARQRGIECMAYSRVW | inactive
LRQVNQWVDVKASDPNGTAL | inactive
VYGLVRLALSAINDYEDYNL | inactive
MFGVVTGLTLGSSTFHA | inactive
YGSVFSMSMTHA | inactive
IYVVACGSR | inactive
DIEYEY | inactive
EMGEGIL | inactive
VFHWSKLSFVEYHGKCGRSS | inactive
SGFYRENARILTV | inactive
NCMELLWCCSCSSVICVMHH | 2.96 ± 0.07
SGGNLWGFVDTLFIGMRIRY | inactive
FLQSGN | inactive
NLAIL | inactive
QRKFVVAVVSATILLFNTRE | inactive
ISISLLFGMTFTSFSRLIHF | 1.42 ± 0.11
RCTHYMNRQMVLHVCMYVSY | inactive
RVSSHISSCGYDFCLWVEA | inactive
VYDLVT | inactive
VSITVFPFTLLITYLI | 0.165 ± 0.75

From the supplement of paper PMC12042874
